Test results reported in JP2022109630A.

Assays:
Assay in all cases: ELISA, immobilised recombinant L7/L12 (10 ng/mL), antibody 10 ug/mL
[1] = target: レジオネラ・ニューモフィラ(LP)のリボソームタンパク質L7/L12 (レジオネラ・ニューモフィラ (Legionella pneumophila))
[2] = target: 黄色ブドウ球菌(SA)のリボソームタンパク質L7/L12 (黄色ブドウ球菌 (Staphylococcus aureus))
[3] = target: モラキセラ菌(MC)のリボソームタンパク質L7/L12 (モラキセラ菌 (Moraxella catarrhalis))
[4] = target: クラミジア・トラコマチス(CT)のリボソームタンパク質L7/L12 (クラミジア・トラコマチス (Chlamydia trachomatis))
[5] = target: サルモネラ菌(SE)のリボソームタンパク質L7/L12 (サルモネラ菌 (Salmonella enteritidis))
[6] = target: リステリア・モノサイトゲネス(LM)のリボソームタンパク質L7/L12 (リステリア・モノサイトゲネス (Listeria monocytogenes))
[7] = target: 肺炎マイコプラズマ(MP)のリボソームタンパク質L7/L12 (肺炎マイコプラズマ (Mycoplasma pneumoniae))
[8] = target: 肺炎クラミジア(CP)のリボソームタンパク質L7/L12 (肺炎クラミジア (Chlamydia pneumoniae))
[9] = target: 溶連菌(SPY)のリボソームタンパク質L7/L12 (溶連菌 (Streptococcus pyogenes))
[10] = target: クレブシエラ・ニューモニエ(KP)のリボソームタンパク質L7/L12 (クレブシエラ・ニューモニエ (Klebsiella pneumoniae))
[11] = target: 緑膿菌(PA)のリボソームタンパク質L7/L12 (緑膿菌 (Pseudomonas aeruginosa))
[12] = target: 百日咳菌(BP)のリボソームタンパク質L7/L12 (百日咳菌 (Bordetella pertussis))
[13] = target: 淋菌(NG)のリボソームタンパク質L7/L12 (淋菌 (Neisseria gonorrhoeae))
[14] = target: 肺炎球菌(SP)のリボソームタンパク質L7/L12 (肺炎球菌 (Streptococcus pneumoniae))
[15] = target: 髄膜炎菌(NM)のリボソームタンパク質L7/L12 (髄膜炎菌 (Neisseria meningitidis))
[16] = target: カンピロバクター・ジェジュニ(CJ)のリボソームタンパク質L7/L12 (カンピロバクター・ジェジュニ (Campylobacter jejuni))

Measured: absorbance at 450 nm (absorbance (450 nm))

B1: 汎用性抗体A(PA51B2) (antibody, V domains shown)
VH: QVQLQQPGSVLVRPGASVKLSCKPSGYTFTGSWMHWTKQRPGQGLEWIGEIHPYSGNTNYNEKFRVKATLTVDTSSSTTYVDLSSLTSDDSAVYYCASGDFDAGFTYWGQGTLVTVSA
VL: DIVLTQSPASLAVSLGRRATISCKASQSVDYDGDSYMNWYQQKPGQPPKLLIYVASNLESGIPARFSGSGSGTDFTLNIHPVEEEDAATYYCQQTNEDPFTFGAGTKLELK
> 0.3: [1]

B2: 汎用性抗体C(CP141A190.1) (antibody, V domains shown)
VH: QVQLQQPGAELVKPGASVKLSCKTSGYNFTSNWIHWVKQRPGQGLEWIGEINPSNGRANYNEKFKNKATLTVDKSSSTAFMHLSSLTSEDSAVYFCSRGDFDEGFTYWGQGTLVTVSA
VL: QIVLTQSPAIMSASLGERVTMTCTASSNVNSDYLHWYQQKPGSSPRLWIYTTSNLASGVPTRFSGNGSGTSYSLTISSMEAEDAATYYCHQYHRSPRTFGGGTKLEIK
> 0.3: [1]

B3: 汎用性抗体B(LP54A3) (antibody, V domains shown)
VH: EVQLQQSGAELVKPGASVRLSCSASGFNIKDTYMHWMRQRPEQGLEWIGRIDPANGNAKYDPKFQVKATITADTSSNTASLQFSSLTSEDTAVYFCASESLDDMYYFDYWGQGTTLTVSS
VL: DIVMTQSQKFMSTSVGDRVSVTCKASQNVGVNVAWYQQKPGQSPKALIYSASYRYSGVPDRFTGSGSGTDFTLTISNVQSEDLAEYFCQQYHSYLYTFGGGTKLEIK
> 0.3: [2] | [3] | [4] | [5] | [6] | [7] | [8] | [9] | [10] | [11] | [12] | [13] | [14] | [15] | [1] | [16]
